Data reported in the supplement of paper PMC12783771.
± gives the standard deviation of the averaged measurements.

B1: library; a variant is named by its letters at X, in order (parent)
chain: MNIQIGELAKRTACPVVTIRFYEQEGLLPPPGRSRGNFRLYGEEHVERLQFIRHCRSLDMPLSDVRTLLSYRKRPDQDCGEVXMLLDEHIRQVESRIGALLELKHHLVELREACSGARPAQSCGILQXLSXCVCXTRGTTAHXSD

Columns and labels:
[1] = variants of: B1; assay: sfGFP reporter fluorescence (15 h) (µM FITC); higher = higher leak; conditions: library round: Round 2; ligand: none
Experimental: (§1)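 Cell-free biosensing: 1 µL Echo-assembled CFE reactions with linear PbrR variant templates (5 nM) and pPbrR-sfGFP reporter, with 1 µM Pb, 30 µM Zn or no ligand; endpoint sfGFP fluorescence after 15 h at 30 °C calibrated as µM FITC. Round 2 ML-predicted PbrR mutants; up to 3 biological replicates.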

[2] = variants of: B1; assay: sfGFP reporter fluorescence (15 h) (µM FITC); higher = stronger transcriptional activation; conditions: library round: Round 2
Experimental: as §1

Variant	sfGFP reporter fluorescence [1]	sfGFP reporter fluorescence ([2]; ligand: 1 µM Pb)	sfGFP reporter fluorescence ([2]; ligand: 30 µM Zn)
NGDAP E109D G124A	0.0638 ± 0.0036	0.0745 ± 0.0045	0.474 ± 0.07
NGADW L126I	0.0633 ± 0.0051	0.0592 ± 0.0043	0.317 ± 0.024
TGCDT L129I	0.0433 ± 0.0032	0.0464	0.0525 ± 0.0028
TGCAP Q121A	0.0482 ± 0.0011	0.0978 ± 0.0067	0.156 ± 0.0046
NGAPY	0.0801 ± 0.0048	0.159 ± 0.0087	1.13 ± 0.12
NGAPL	0.0797 ± 0.0073	0.16 ± 0.0081	1.22 ± 0.26
NGDDP	0.0488 ± 0.0061	0.0602 ± 0.0046	0.684 ± 0.074
NGAAF E112D	0.0594 ± 0.0017	0.0886 ± 0.0049	0.82 ± 0.062
TGDDL T139A	0.0436 ± 0.001	0.0619 ± 0.0082	0.241 ± 0.015
TGADP V108L	0.0451 ± 0.00078	0.0942 ± 0.0052	0.321 ± 0.0054
TGDDM V108L	0.0605 ± 0.0032	0.0645 ± 0.0026	0.209 ± 0.025
NGDAR E112I	0.0495 ± 0.0017	0.054 ± 0.002	0.35 ± 0.016
NGADP M60L P61N D64K	0.804 ± 0.17	1.38 ± 0.2	2.82 ± 0.43
TGDAP E109L	0.043 ± 0.0023	0.0797 ± 0.0069	0.366 ± 0.035
NGDAP M60L D64K	1.45 ± 1.3	1.27 ± 0.82	3.35 ± 0.63
NGDAP P61N D64T E112I	0.11 ± 0.014	0.308 ± 0.03	1.7 ± 0.2
TGCAT	0.0488 ± 0.002	0.0664 ± 0.0029	0.09 ± 0.0056
TGCAP	0.0461 ± 0.0022	0.0657 ± 0.0026	0.0869 ± 0.005
NGDAP P61N V108E	0.0745 ± 0.0048	0.129 ± 0.01	1.48 ± 0.14
NADAP K104R	0.123 ± 0.0024	0.419 ± 0.072	2.34 ± 0.033
NGADL L129V	0.0491 ± 0.0012	0.0459 ± 0.00051	0.0502 ± 0.0022
NGDAP L129I H142A	0.0458 ± 0.0024	0.0491 ± 0.0012	0.302 ± 0.012

Variant	sfGFP reporter fluorescence [1]	sfGFP reporter fluorescence ([2]; ligand: 1 µM Pb)	sfGFP reporter fluorescence ([2]; ligand: 30 µM Zn)
NGDAP P61D D64K L107C	2.53 ± 0.22	1.89 ± 0.26	2.38 ± 0.23
NEDAT	0.0492 ± 0.001	0.0597 ± 0.0011	0.594 ± 0.053
NGCDP D64K E112H	0.108 ± 0.012	0.402 ± 0.043	1.44 ± 0.16
NGDAY L110V	0.0649 ± 0.005	0.0584 ± 0.0031	0.445 ± 0.032
NGDAL L110I	0.0605 ± 0.0082	0.0575 ± 0.0038	0.953 ± 0.064
NGDAP S130A T136A	0.0512 ± 0.001	0.0834 ± 0.0067	1.11 ± 0.13
NGADP M60L D64K	1.59 ± 0.28	2.6 ± 0.28	3.98 ± 0.16
NGDAL P61N	0.0792 ± 0.0022	0.235 ± 0.018	1.57 ± 0.074
NGDAT L85I	0.0427 ± 0.0024	0.0595 ± 0.0027	0.809 ± 0.019
TGDDP D64E V108N	0.0416 ± 0.00051	0.0357 ± 0.0033	0.0616 ± 0.0048
NGADT C134V	0.103 ± 0.013	0.155 ± 0.03	2.64 ± 0.21
NGCDP V108I S115G	0.0507 ± 0.0021	0.0573 ± 0.0016	0.115 ± 0.0092
NADDP P61N D64K K104V	0.917 ± 0.079	1.61 ± 0.16	3.1 ± 0.27
TGDDA E25V	0.0619 ± 0.0073	0.072 ± 0.0079	0.252 ± 0.031
TGDAL V108L	0.0451 ± 0.0016	0.073 ± 0.0021	0.281 ± 0.0062
NGCDP M60L P61N D64K K104V	0.179 ± 0.016	0.384 ± 0.049	1.39 ± 0.088
TGDAA E112I	0.04637 ± 0.00034	0.0525 ± 0.0024	0.108 ± 0.0066
NGCDR K104R	0.047 ± 0.0037	0.0672 ± 0.0019	0.0986 ± 0.0051
NGDAM Q121A	0.0666 ± 0.0079	0.106 ± 0.0059	1.36 ± 0.13
NGADY V133A	0.0753 ± 0.0056	0.124 ± 0.0081	1.15 ± 0.1
NGCAY	0.0505 ± 0.0017	0.0635 ± 0.0058	0.277 ± 0.0034
NGCAL	0.0515 ± 0.0016	0.0668 ± 0.0024	0.255 ± 0.022
